Test results published in US20250381307A1, “RETRO-AAV AND USE IN TREATING NEURODEGENERATIVE DISEASES” (priority 2023, published 2025).
Where a chain is given by its changes, count along the chain named. Names and notes keep the numbering of the source.

Key:
[1] = test system: striatonigral projection neurons (striatal MSNs); experiment: Retrograde labeling of striatal MSNs after AAV injection into the SNr (EYFP+ cell counting); format: in vivo, mice; details: for Activity Level STR: striatum, numbers of YFP-expressing neurons per animal; for reporter-labeled MSNs by promoter (FIG. 4B): SNr injection, n=3 mice, mean±SEM; for Labeling Efficiency in Striatonigral Pathway: AAV8R capsid mutants, numbers of labeled neurons per animal
Description: (§1) Brain profiles of two epigenetic marks for enhancers and promoters, monomethylation of histone H3 lysine 4 (H3K4me1) and acetylation of histone H3 lysine 27 (H3K27ac) were checked and approximately 2 kilobase-long sequences around the transcriptional start site (TSS) that have high levels of H3K4me1 and/or H3K27ac were identified in mouse brain. Homologous sequences at equivalent positions of the human genome were then cloned onto an AAV backbone, and the activity of the homologous sequences in directing reporter expression was tested in mice after injections of AAVs into the SNr (FIG. 3A-C, TABLE 3).
(§2) Mice were anesthetized with sodium pentobarbital (Nembutal; 80 mg/kg, i.p.), and then placed into a stereotaxic device (KOPF). Eye cream was applied on both corneas to avoid dehydration. The skull above the targeted areas was thinned with a dental drill and carefully removed. Injections were conducted with a 10 μL syringe connected to a 33-Gauge needle (Neuros; Hamilton), using a microsyringe pump (Legato 130, KD Scientific). A total volume of 200 nL virus was injected into the SNr at a speed of 20 nL/min. The coordinates for the SNr were 3.4 mm posterior, 1.3 mm lateral, 4.8 mm ventral to the bregma.
(§3) Images were acquired using a confocal microscope (Carl Zeiss, LSM880) and an Axiolmager.Z1 microscope with apotome (Carl Zeiss). Brain structures were identified microscopically and in digital photos using a mouse brain atlas. To analyze the number of EYFP+ cells in the striatum, slices from rostral to caudal striatum were used. Every sixth section was analyzed, and numbers of EYFP+ cells were multiplied by six to acquire the approximate total number and mean number of cells per animal. Images were processed using ImageJ (NIH, USA), and final quantifications were independently performed manually by two blinded experimenters.

substantia nigra = experiment: Promoter activity level in substantia nigra after AAV injection into the SNr; format: in vivo, mice; details: numbers of YFP-expressing neurons per animal
Description: as §1, §2, §3

Molecule: R9P1: tested promoter from gene RGS9, 2152 bp (SEQ ID NO: 47)
- Activity Level STR [1]: +++ (10k-25k)
- Activity Level SN (substantia nigra): + (<5k)

Molecule: G88P2: 2259-bp promoter from the gene GPR88 (SEQ ID NO: 44)
- reporter-labeled MSNs by promoter (FIG. 4B) [1]: 36290±3705
- Activity Level STR [1]: ++++ (>25k)
- Activity Level SN (substantia nigra): + (<5k)

B1: AAV8R4: AAV8R capsid mutant R490Q (SEQ ID NO: 5) (protein)
chain: MAADGYLPDWLEDNLSEGIREWWALKPGAPKPKANQQKQDDGRGLVLPGYKYLGPFNGLDKGEPVNAADAAALEHDKAYDQQLQAGDNPYLRYNHADAEFQERLQEDTSFGGNLGRAVFQAKKRVLEPLGLVEEGAKTAPGKKRPVEPSPQRSPDSSTGIGKKGQQPARKRLNFGQTGDSESVPDPQPLGEPPAAPSGVGPNTMAAGGGAPMADNNEGADGVGSSSGNWHCDSTWLGDRVITTSTRTWALPTYNNHLYKQISNGTSGGATNDNTYFGYSTPWGYFDFNRFHCHFSPRDWQRLINNNWGFRPKRLSFKLFNIQVKEVTQNEGTKTIANNLTSTIQVFTDSEYQLPYVLGSAHQGCLPPFPADVFMIPQYGYLTLNDGSQAVGRSSFYCLEYFPSQMLRTGNNFQFTYTFEDVPFHSSYAHSQSLDRLMNPLIDQYLYYLSRTQTTGGTANTQTLGFSQGGPNTMANQAKNWLPGPCYRQQQVSTTTGQNNNSNFAWTAGTKYHLNGRNSLANPGIAMATHKDDEERFFPSNGILIFGKQNAARDNADYSDVMLTSEEEIKTTNPVATEEYGIVADNLQRGNLADQDYTKTARQAATADVNSQGALPGMVWQNRDVYLQGPIWAKIPHTDGNFHPSPLMGGFGLKHPPPQILIKNTPVPADPPTTFNQSKLNSFITQYSTGQVSVEIEWELQKENSKRWNPEIQYTSNYYKSINVDFAVNTEGVYSEPRPIGTRYLTRNL
- Labeling Efficiency in Striatonigral Pathway [1]: + (<5k)

B2: AAV8R2: AAV8R capsid mutant N411S (SEQ ID NO: 3) (protein)
chain: B1 chain with N411S, Q490R
- Labeling Efficiency in Striatonigral Pathway [1]: + (<5k)

B3: AAV8R8: AAV8R capsid mutant T495A (SEQ ID NO: 9) (protein)
chain: B1 chain with Q490R, T495A
- Labeling Efficiency in Striatonigral Pathway [1]: + (<5k)

B4: AAV8R6: AAV8R capsid mutant F536Y (SEQ ID NO: 7) (protein)
chain: B1 chain with Q490R, F536Y
- Labeling Efficiency in Striatonigral Pathway [1]: + (<5k)

B5: AAV8R11: AAV8R capsid mutant V125I + T495A (SEQ ID NO: 12) (protein)
chain: B1 chain with V125I, Q490R, T495A
- Labeling Efficiency in Striatonigral Pathway [1]: + (<5k)

B6: AAV8R3: AAV8R capsid mutant Y447F (SEQ ID NO: 4) (protein)
chain: B1 chain with Y447F, Q490R
- Labeling Efficiency in Striatonigral Pathway [1]: + (<5k)

B7: AAV8R14: AAV8R capsid mutant V125I + A606S + T495A (SEQ ID NO: 15) (protein)
chain: B1 chain with V125I, Q490R, T495A, A606S
- Labeling Efficiency in Striatonigral Pathway [1]: ++ (5k-10k)

B8: AAV8R9: AAV8R capsid mutant V125I + F536Y (SEQ ID NO: 10) (protein)
chain: B1 chain with V125I, Q490R, F536Y
- Labeling Efficiency in Striatonigral Pathway [1]: + (<5k)

B9: AAV8R10: AAV8R capsid mutant V125I + A606S (SEQ ID NO: 11) (protein)
chain: B1 chain with V125I, Q490R, A606S
- Labeling Efficiency in Striatonigral Pathway [1]: + (<5k)

B10: AAV8R1: AAV8R capsid mutant V183E (SEQ ID NO: 2) (protein)
chain: B1 chain with V183E, Q490R
- Labeling Efficiency in Striatonigral Pathway [1]: + (<5k)

B11: AAV8R13: AAV8R capsid mutant V125I + F536Y + T495A (SEQ ID NO: 14) (protein)
chain: B1 chain with V125I, Q490R, T495A, F536Y
- Labeling Efficiency in Striatonigral Pathway [1]: ++ (5k-10k)

B12: AAV8R7: AAV8R capsid mutant A606S (SEQ ID NO: 8) (protein)
chain: B1 chain with Q490R, A606S
- Labeling Efficiency in Striatonigral Pathway [1]: + (<5k)

B13: AAV8R5: AAV8R capsid mutant V125I (SEQ ID NO: 6) (protein)
chain: B1 chain with V125I, Q490R
- Labeling Efficiency in Striatonigral Pathway [1]: + (<5k)

B14: G88P3: 1395-bp shortened derivative of G88P2 promoter (SEQ ID NO: 45) (nucleic acid, listed as Homo sapiens)
DNA: TCTAGATGTACCACTGACATCTGCTTTAAATCTTTTGCCCATTTCATTTTTACCCTCTAACCATTTCATTACTAAAACACAAAACAAACTCCGGAAAGGAGTTTGTTGATGAGAAAACACTGAAAGTACGATTTAAATTGAGGAATGGAGATTTTCTGTGGATAATTGTCTATGTTCCACTTTACCAAAGAAAAATGAATTTCAAGTAGTGCATAAAGTAATTCTCGTTAAAAAATGTGGGAATAAAGAGATCAGTCCTGGGTACTGGGAATATATTTATCTCACAGAAAAATCTTGCCCACAAAATGCATCAGACTGAGATGAAATACTCTAGGGTATATTAAATTTTATTCTAATATTGAAGGGAGGGAAAAAAAGGACGGAAAGAAAAATGAAACAGGATGAAAAATAAGGTGATTGGGAGAGAGAAAAGACAGAGAAACTTGTTAACGACAGGACTTTCTGAGCAAGATATTTTTCTTCCTTTTACAAGTTGGAAGCTATTGAATAATTCATGCCAAGCGTGGAAAGGCTGTCTTTTCCCTGGATGATGTATAACTAAGCAGGAGAGAGCTTCGAGTGGGTTCACCACATCAGCCACCACTCCTGCTTCTGAGCACAGGGTGCTCTCCTCTTGAGCTCAGCTTCTGCTTTTGCAGCCAAGCATTCTTGCTGCTGCTGCCTGCCTGCCCACCCGCCTGGGCTTGCAGCCCGCCACTTTACTTTCTCCAGCCCTGATACCAGCTGAGAAGTCTCCCTGCAGCTGCTAGTTCCTGCCCAGGACCATGTGTGTGGATGCTGCTTGGGAGAAGCGGGCACTTGCTCCTGGCACTGATCCCAGCTGAGTTTCTCCTGTTGATTTCTGGACCACTGATGCTGTTGCTGAGGAGGTATTTCCCGGCATCCCTCCCCCTGAGACACCGGCTAAGGACCAGCCTAAACGCAAGGTAACCTTCACCTCTTTCCCATGGGATTTTCCCCAGCTGGGATATCTCTGCTTTCTCCTGGAACTAGGTCCTCCAGCTGGCAACATATCTCTCTCTCTCTCTCTCTCTCTCTCTCTCTCTCTCTGTGTGTGTGTGTGTGTGTTGGGGGAGAAGAGGAGACTGTTTTAGGTATTGCTCTGTCCTAGGGCTTCCCCGATACCTGCTGAATCCAATGCAAAGTGGCCTTTCCCCTGGCTCTGGAGACATTTCCGAGGCAGGCACCTGTCATTTGCCACCCCCGTCCTCCTCCTCGAGCTCCCTTTCTCCCCCTCCCCCAGCCCATTATTCTGCTTCAGCCTTTTGTGTCAGTGGCAGAGGGCTGAAGGGATGTCTTTGCCCTTCTGGCAGGCAGGACAGTGTCAGGATGGACCGCGCTGCCAGAAGCCGACGCTAGCGAGGGAGGTGTGAA
- reporter-labeled MSNs by promoter (FIG. 4B) [1]: 37026±6646
- Activity Level STR [1]: ++++ (>25k)
- labeled MSNs per mouse ([1]; viruses expressing EYFP, injection into the SNr (FIG. 4B)): 3.7±0.66 ×104 MSNs per mouse
- Activity Level SN (substantia nigra): + (<5k)
